This note sets out measurements from publication PMC10191836 (2023).

This assay concerns the target T1, C-terminal region of human LTBP-1 (human, UniProt Q14766 1347-1721).
T1 chain: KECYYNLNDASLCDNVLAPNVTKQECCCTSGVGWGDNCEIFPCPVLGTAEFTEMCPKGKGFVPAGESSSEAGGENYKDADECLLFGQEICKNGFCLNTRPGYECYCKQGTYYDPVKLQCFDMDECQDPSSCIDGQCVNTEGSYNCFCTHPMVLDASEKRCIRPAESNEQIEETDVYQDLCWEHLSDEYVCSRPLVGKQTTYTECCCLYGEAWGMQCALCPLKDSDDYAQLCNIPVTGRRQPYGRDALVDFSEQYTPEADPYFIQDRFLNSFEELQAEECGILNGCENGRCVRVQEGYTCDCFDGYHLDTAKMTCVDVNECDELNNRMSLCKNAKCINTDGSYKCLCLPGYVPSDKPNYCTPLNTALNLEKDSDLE
The experiment in a line: SPR.

B1: recombinant human fibrillin-1 N-terminal fragment PF3 (domain or fragment)
chain: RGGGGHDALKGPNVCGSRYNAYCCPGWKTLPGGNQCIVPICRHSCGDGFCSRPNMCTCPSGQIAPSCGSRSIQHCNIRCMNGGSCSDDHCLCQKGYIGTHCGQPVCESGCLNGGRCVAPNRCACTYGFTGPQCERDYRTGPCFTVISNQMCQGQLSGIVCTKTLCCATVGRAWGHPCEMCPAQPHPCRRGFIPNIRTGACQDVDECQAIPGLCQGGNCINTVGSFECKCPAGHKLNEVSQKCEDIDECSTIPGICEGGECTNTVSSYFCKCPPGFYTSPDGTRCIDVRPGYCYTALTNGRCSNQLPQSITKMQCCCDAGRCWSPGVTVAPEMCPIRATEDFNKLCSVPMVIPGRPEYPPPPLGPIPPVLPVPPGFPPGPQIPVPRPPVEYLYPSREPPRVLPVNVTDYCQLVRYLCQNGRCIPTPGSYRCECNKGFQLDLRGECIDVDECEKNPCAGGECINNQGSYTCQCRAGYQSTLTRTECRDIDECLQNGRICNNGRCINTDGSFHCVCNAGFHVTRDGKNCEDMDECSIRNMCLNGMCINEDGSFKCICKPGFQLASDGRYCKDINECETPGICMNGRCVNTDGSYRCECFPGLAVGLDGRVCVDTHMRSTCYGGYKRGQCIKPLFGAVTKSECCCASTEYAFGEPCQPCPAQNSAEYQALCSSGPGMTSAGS
The molecule B1 had a Kd of 17.7 nM.

B2: recombinant human fibrillin-1 N-terminal fragment PF3 with the WMS deletion (domains TB1–PRR–EGF4) (domain or fragment)
chain: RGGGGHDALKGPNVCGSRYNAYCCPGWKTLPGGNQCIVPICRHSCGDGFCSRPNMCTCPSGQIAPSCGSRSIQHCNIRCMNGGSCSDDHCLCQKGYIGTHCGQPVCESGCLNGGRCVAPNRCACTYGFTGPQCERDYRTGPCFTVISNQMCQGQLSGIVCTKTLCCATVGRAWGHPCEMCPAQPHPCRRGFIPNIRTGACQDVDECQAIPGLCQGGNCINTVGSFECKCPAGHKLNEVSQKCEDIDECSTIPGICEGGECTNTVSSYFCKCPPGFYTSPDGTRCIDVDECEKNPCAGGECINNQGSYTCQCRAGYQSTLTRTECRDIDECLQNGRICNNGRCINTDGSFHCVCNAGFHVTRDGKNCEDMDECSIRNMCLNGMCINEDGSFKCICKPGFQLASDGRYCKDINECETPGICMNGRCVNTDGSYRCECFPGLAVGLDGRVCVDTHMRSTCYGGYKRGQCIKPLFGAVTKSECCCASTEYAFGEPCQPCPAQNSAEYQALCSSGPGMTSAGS
modifications: Calcium bound to the cbEGF domains; disulfide bonded. The PF3 end is not printed: it is taken as the end of TB2 (722), because the paper's fragment boundaries are at 330 and 723. The WMS deletion TB1-PRR-EGF4 is taken as 330-489 from domain limits. The N-terminus is assumed to be processed at 44/45.
On to B2, for which binding was characterised by a dissociation constant (Kd) of 50.1 nM.
